Test results published in the supplement of paper PMC10126150.
± gives the standard deviation of the averaged measurements.
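Note: ATP exposure 15 min at 22 °C before imaging.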

The sequences below were run on ATP (assay: switch fluorescence ratio, 500 uM ATP over buffer (Cy3 cluster intensity, sum of 5 cycles each) (fold (ratio)); higher = stronger signal-on switching upon ATP binding; sequences stand for … in TCGTCGGCAGCGTCAGATGTGTATAAGAGACAGTTTTTTTTTTTTTTTTTTTTTTTTT…TC). Conditions: aptamer strand: ATP DNA aptamer (quencher-CACCTGGGGGAGTATTGCGGAGGAAGG + anchor), 100 nM annealed; ATP concentration: 500 uM.
How it was run: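 Cy3-labelled switching-strand clusters on a modified Illumina MiSeq flow-cell were annealed to 100 nM quencher-labelled ATP aptamer, imaged in selection buffer, then imaged after 15 min with 500 uM ATP at 22 °C. Five buffer/ATP cycles ran, with NaOH stripping and re-annealing between them. The fluorescence ratio is summed target-cycle over summed buffer-cycle Cy3 intensity per cluster, averaged per switch-domain sequence. Clusters outside 100-1000 RFU were excluded.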
Work on AGTATTGGTT yielded a switch fluorescence ratio of 0.986 ± 0.021.
In the case of TTAGATCATG, the switch fluorescence ratio is reported as 1.01 ± 0.023.
AGGGTCGACT gave a switch fluorescence ratio of 1.033 ± 0.0095.
With ACGAGTGTCG the switch fluorescence ratio was 0.964 ± 0.04.
GGTTAAACAG gave a switch fluorescence ratio of 0.982 ± 0.041.
With TCGGGGCAGT the switch fluorescence ratio was 2.01 ± 1.4.
For TCGGCACATT, the switch fluorescence ratio was 1.46 ± 0.63.
In the case of CGTCTTTAGA, the switch fluorescence ratio is reported as 0.987 ± 0.01.
TTCCGGAGGC was tested, and the switch fluorescence ratio was 1.22 ± 0.28.
ACTCAATGCA gave a switch fluorescence ratio of 1.06 ± 0.045.
With GTCTAGAAAG the switch fluorescence ratio was 0.985 ± 0.016.
In the case of ATTGTACGGT, the switch fluorescence ratio is reported as 1.03 ± 0.013.
Sequence TGTTTGATGG has a switch fluorescence ratio of 1.01 ± 0.038.
Work on GGATAGCCGA yielded a switch fluorescence ratio of 0.99 ± 0.086.
In the case of TAGGTGTGTG, the switch fluorescence ratio is reported as 0.984 ± 0.024.
For TTCGGTTAGT, the switch fluorescence ratio was 1 ± 0.012.
For TTAAAGTCCC, the switch fluorescence ratio was 0.993 ± 0.033.
AAAATTGCAG gave a switch fluorescence ratio of 0.997 ± 0.012.
AACATATGGG gave a switch fluorescence ratio of 1 ± 0.012.
In the case of GGGGCGTTAG, the switch fluorescence ratio is reported as 1.002 ± 0.0065.
AGGGGCAGTT was tested, and the switch fluorescence ratio was 0.985 ± 0.02.
With AAGGCGAAAA the switch fluorescence ratio was 0.976 ± 0.013.
GATTGTTGGG showed a switch fluorescence ratio of 0.984 ± 0.02.
In the case of AGAGGTATCG, the switch fluorescence ratio is reported as 0.995 ± 0.019.
With GTTTTAGTAG the switch fluorescence ratio was 1.02 ± 0.015.
In the case of CCAGTCATTT, the switch fluorescence ratio is reported as 1.03 ± 0.027.
AAGGCTATGG showed a switch fluorescence ratio of 0.988 ± 0.027.
In the case of GAATCAGGGA, the switch fluorescence ratio is reported as 1.02 ± 0.015.
With AGGTCAGCTG the switch fluorescence ratio was 0.99 ± 0.018.
With ACACTGCTCG the switch fluorescence ratio was 1.05 ± 0.011.
With TGCAGGGACT the switch fluorescence ratio was 1.005 ± 0.0081.
Sequence TGGGCACGGT has a switch fluorescence ratio of 0.969 ± 0.049.
In the case of TTTGGGGGG, the switch fluorescence ratio is reported as 1.05 ± 0.046.
Work on ACTGATGAAG yielded a switch fluorescence ratio of 0.991 ± 0.049.
Work on AAAGACAGTG yielded a switch fluorescence ratio of 1.01 ± 0.058.
Work on ACGATAGAGG yielded a switch fluorescence ratio of 1.14 ± 0.015.
Sequence ATAGGGCG has a switch fluorescence ratio of 0.987 ± 0.011.
AAAAAATTGT showed a switch fluorescence ratio of 0.999 ± 0.019.
CGAGCTTCGT gave a switch fluorescence ratio of 1.01 ± 0.034.
CTATTACTTA gave a switch fluorescence ratio of 1.02 ± 0.032.
For AAGCTGGTTT, the switch fluorescence ratio was 0.982 ± 0.032.
TTTTTTAAGC gave a switch fluorescence ratio of 1.01 ± 0.018.
In the case of TTGTTCGGGG, the switch fluorescence ratio is reported as 1.03 ± 0.056.
Work on TCTGACGGTG yielded a switch fluorescence ratio of 1.01 ± 0.017.
In the case of GTTTAAAATC, the switch fluorescence ratio is reported as 0.99757 ± 0.00014.
TGAAAGCCAC was tested, and the switch fluorescence ratio was 1.1 ± 0.024.
GGCCAAGGGA showed a switch fluorescence ratio of 1.016 ± 0.0069.
For ATGTGCCTGC, the switch fluorescence ratio was 1.07 ± 0.03.
In the case of GCGTGCAGGC, the switch fluorescence ratio is reported as 1.03 ± 0.023.
Sequence TTAGTTTTGG has a switch fluorescence ratio of 1.04 ± 0.046.
For GTAACTCGAA, the switch fluorescence ratio was 0.98231 ± 0.00092.
AGGGACGGGG gave a switch fluorescence ratio of 0.991 ± 0.047.
TGAGACTGGG was tested, and the switch fluorescence ratio was 0.993 ± 0.02.
With CAGTCAGAGT the switch fluorescence ratio was 0.985 ± 0.023.
TTAAGTTTAC was tested, and the switch fluorescence ratio was 1.01 ± 0.038.
With AAGGTTTTTC the switch fluorescence ratio was 1.01 ± 0.015.
CGATCGGTCA showed a switch fluorescence ratio of 1.0097 ± 0.00057.
In the case of AGTATATGTG, the switch fluorescence ratio is reported as 0.955 ± 0.023.
With TTTATTGCAT the switch fluorescence ratio was 1.018 ± 0.0082.
In the case of GGGAATGTTA, the switch fluorescence ratio is reported as 0.9902 ± 0.007.
CGGTCGAGGA was tested, and the switch fluorescence ratio was 0.988 ± 0.021.
Sequence TGCTATAAAG has a switch fluorescence ratio of 0.988 ± 0.043.
For GGACAGTTGT, the switch fluorescence ratio was 1.01 ± 0.057.
AAACGCGGAC was tested, and the switch fluorescence ratio was 3.45 ± 0.49.
For AAGACTCTGG, the switch fluorescence ratio was 0.973 ± 0.044.
Work on GGATGACGTC yielded a switch fluorescence ratio of 1.035 ± 0.0091.
TACGATGTGG showed a switch fluorescence ratio of 1.007 ± 0.0088.
For GGGATCAGCT, the switch fluorescence ratio was 1.006 ± 0.0046.
GGGGCGCAGG gave a switch fluorescence ratio of 0.993 ± 0.011.
With CGGCTGGCTT the switch fluorescence ratio was 1 ± 0.033.
AAGGGGAGGC gave a switch fluorescence ratio of 0.971 ± 0.041.
AAGCCCGGGA showed a switch fluorescence ratio of 1.45 ± 0.67.
With GGGGGTGGGG the switch fluorescence ratio was 1.01 ± 0.037.
For ATAGTATATT, the switch fluorescence ratio was 0.982 ± 0.044.
TTAGCGTGCG gave a switch fluorescence ratio of 0.953 ± 0.054.
In the case of GCCGGGACCG, the switch fluorescence ratio is reported as 1.024 ± 0.01.
TGAAAGGGGA was tested, and the switch fluorescence ratio was 1.03 ± 0.054.
GACGGTTTAC showed a switch fluorescence ratio of 1.65 ± 0.023.
Work on CAGATTTTTT yielded a switch fluorescence ratio of 0.982 ± 0.028.
In the case of CATTATTTCA, the switch fluorescence ratio is reported as 0.997 ± 0.04.
In the case of GGGGTGTAGA, the switch fluorescence ratio is reported as 1.02 ± 0.03.
In the case of AAGAACTAGG, the switch fluorescence ratio is reported as 1.03 ± 0.041.
GGTTGGTACT showed a switch fluorescence ratio of 1 ± 0.026.
Work on AGAGAAGTGA yielded a switch fluorescence ratio of 0.986 ± 0.032.
Sequence GTCATAGCGT has a switch fluorescence ratio of 0.977 ± 0.016.
AGGCGTATAC was tested, and the switch fluorescence ratio was 1.79 ± 0.18.
Work on GTAGTTGATG yielded a switch fluorescence ratio of 0.9665 ± 0.0026.
For GGGCACGTGG, the switch fluorescence ratio was 0.995 ± 0.035.
In the case of AATGTTAGTG, the switch fluorescence ratio is reported as 0.958 ± 0.036.
For CGCTGCTCGC, the switch fluorescence ratio was 1.3253 ± 0.00064.
Work on TGGAGTAACT yielded a switch fluorescence ratio of 1.0876 ± 0.00087.
With TCATAGGGTG the switch fluorescence ratio was 1.03 ± 0.1.
TTTTTCGAGG gave a switch fluorescence ratio of 0.997 ± 0.025.
For TCGGTTTAGG, the switch fluorescence ratio was 1.011 ± 0.0076.
CCCGGCTGTT showed a switch fluorescence ratio of 1.02 ± 0.067.
ATATACATGT showed a switch fluorescence ratio of 1.02 ± 0.038.
With CTCATAGCGC the switch fluorescence ratio was 1.02 ± 0.035.
With CTGAGGCTGA the switch fluorescence ratio was 1.12 ± 0.11.
TGGAGGTCCG gave a switch fluorescence ratio of 1.06 ± 0.023.
GACCCGCTTG was tested, and the switch fluorescence ratio was 1.06 ± 0.013.
